Test results reported in the nanobody polyreactivity screen of Harvey et al. (2022).

Experiment: yeast display, Sf9 membrane polyspecificity reagent, FACS + sequencing; frameworks hold sequencing errors
Procedure, shortened: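 Nanobodies came from a synthetic yeast display library in Saccharomyces cerevisiae BJ5465, induced with galactose for 36–48 hours and stained for 1 hour at 4 °C with 10% biotinylated, detergent-solubilized Sf9 membrane reagent. Cells were enriched on streptavidin microbeads and then FACS-sorted, with low and high (top ~1%) gates set on anti-HA fluorescence for expression and streptavidin fluorescence for reagent binding. Each polyreactivity label reflects the gate a clone came from. Genes were amplified by colony PCR, sequenced by MiSeq 2 × 250 and filtered by CDR length.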

Sequence	polyreactivity (PSR sort gate)
QVQLVESGGGLVQAGGSLRLTCAASARIFGYYVMGWSRQAPGKETELVAAIRSSADSTYYADSVKGRFTISRDNAKNTVYLQMNSLKPEDTAVYYCAAQSPAYYTKSYWGQGTQVTVSS	low polyreactivity
QVQLVESGGGLVQAGGSLRLTCAASGFIFEHYAMGWYRQAPGKERELVARISWRGGSTYYADSVKGRFTISRDNAKNTVYFQMNSLKPEDTAVYYCNAQEVVYFGYYPSDYWGQGTQVTVSS	low polyreactivity
QVQLVESGGGLVQAGGSLRLTCAASGFIFQIYAMGWYRQAPGKERELVAAISSGGSTNYADSVKGRFTISRDNAKNTVYLQMNSLKPEDTAVYYCAAATQYWYFYSFKDKSGFRGYYWGQGTQVTVSS	high polyreactivity
QVQLVESGGGLVQAGGSLRLTCAASGFIFRAYAKGWYRQEPGKERELVAAISRSVSRTYYADSVKGRFTISRDNAKNTVYLQMNSLKPEDTAVYYCAADGQLHMDYWGQGTQVTVSS	high polyreactivity
QVQLVESGGGLVQAGGSLRLTCAASGFIFYAYTMRCYRQAPGKERELVAAISRSGGRTYYADSVKGRFTISRDNAKNTVYLQMNRLKPEDTAVYYCAAEYRGVPRVVVDYDYWGQGTQVTVSS	high polyreactivity
QVQLVESGGGLVQAGGSLRLTCAASGFIVKYNAMGWYRQAPGKERELVAAITSTGSTNYADSVKGRFTISRDNAKNTVYFQMISLKPEDNAVYYCAAYWRSRNRFNWGQGTQVTVTS	high polyreactivity
QVQLVESGGGLVQAGGSLRLTCAASGFIYYYNAMGWYRQAPGKERQLVAAISASGDRTYYADSVKGRFTISRDNAKNTVYLQMNSLKPEDTAVYYCAARSQGARYSSRRRFGDYWGQGTQVTVSS	high polyreactivity
QVQLVESGGGLVQAGGSLRLTCAASGFTFARNTMGWYRQAPGKERELVAAISKNGGSTYYADSVKGRFTISRDNAKNTVYLQMNSLTPEDTAVYYCNTYPSKVGRYSVKDYEYGYWGQGTQVTVSS	high polyreactivity
QVQLVESGGGLVQAGGSLRLTCAASGFTFDQYAMGWYRQEPGKERELVAAISFDGSSTYYADSVKGRFTISRDNAKNTVYLQMNSLKPEDTAVYYCNAAVRGYSSLYRYGYWGQGTQVTVSS	high polyreactivity
QVQLVESGGGLVQAGGSLRLTCAASGFTFFYNAMGWYRQAPGKERELVAAISRGGGRTYYADSVKGRFTISRDNAKNTVYLQMNSLKPEDTAVYYCAKEYGGTRGRKLDYWGQGTQVTVSS	high polyreactivity
QVQLVESGGGLVQAGGSLRLTCAASGFTFGEYAMGWYRQAPGKERELVAVITSGGGRTYYADSVKGRFTISRDNAKNNVYLEMNSLNPEDTAAYYCAAQPKPQLERKDDYWGQGTQVTVSS	high polyreactivity
QVQLVESGGGLVQAGGSLRLTCAASGFTFRSYAMGWYRQAPGKERELVADISIRGGGTYYADSVKGRFTISRDNAKNTVYLQRNSLKPEDTAVYYCAAERYKPFLWPRYDYWGQGTQVTVSS	low polyreactivity
QVQLVESGGGLVQAGGSLRLTCAASGFTFYRNTMGWYRQAPGKERELVAAITQRGGSTYYADSVKGRFTISRDNAKNTVYLQMNSLKPEDTAVYYCNRDVKVLYASSHSPYGYDHWGQGTQVTVSS	low polyreactivity
QVQLVESGGGLVQAGGSLRLTCAASGGIFQFYDMGWYRQAPGKERELVAAITSSGGSTYADSVKGRFTISRDNAKYTVYLQMNSLKPEVTAVYYCAASLVWEYAPGWRFKYGYWGQGTQVTVSS	high polyreactivity
QVQLVESGGGLVQAGGSLRLTCAASGGTISVYDMGWYRQAHGNERELVAAIRDRGVSTYYADSVKGRFTISRDTAKNTVYLQMNSLKPEDTAVYYCAAEYFDGSTYSYYYWGQGTQVTVSS	high polyreactivity
QVQLVESGGGLVQAGGSLRLTCAASGIIFKQNVKGWYRKAPGKESELVAAITSRDGTTYYADSVKGRFTISRDNAKNTVYLQMNSLKPEDTAVYYCATLFKSGSYKYGYWGQGTQVTVSS	high polyreactivity
QVQLVESGGGLVQAGGSLRLTCAASGIIFRGYVMAWYRQAPGKERELVAAISTSGGRTSYADSVKGRFTISRDNAKNTVYLQMNSLKPEDTAVYYCKTRVTGNRLGYYYWGQGTQVTVSS	high polyreactivity
QVQLVESGGGLVQAGGSLRLTCAASGITFGRNVMGWYRQAPGKEMELVATISGSAGYTYYADSVKGRFTISRDYAKNTVYFQMNSLKPEDTSVYYCAARQRKARQIVLLDYWGQGTKVTVSS	high polyreactivity
QVQLVESGGGLVQAGGSLRLTCAASGITFGSYAMGWYRQAPGKERELVAAITWRDGSTYYADSVKGRFTISRDNAKNTVYLQMYSLKPEDTAVYYCAAYLGLRYVGDVSDTWRYDYWGQGTQVTVSS	low polyreactivity
QVQLVESGGGLVQAGGSLRLTCAASGITFLHYAMGWYRQAPGKERELVATISRRGGSTYYADSVKGRFTNSRDNAKYTVYLQLNSLKPEDTAVYYCAADSYYLRHYSAGYYFKRYYWGQGTQVTVSS	high polyreactivity

Sequence	polyreactivity (PSR sort gate)
QVQLVESGGGLVQAGGSLRLTCAASGITFTQNAMGWYRQAPGKERELVAAISRSGTITYYADSVKGRFTISRDHAKNTVYLQMNSLKPEDTAVYYCNKLRPQRSWEYDYWGQGTQVTVSS	high polyreactivity
QVQLVESGGGLVQAGGSLRLTCAASGITFYDNAMGWYRQAPGKERELVAGISYDGDSTYADSVKGRFTNSRDNAKNTVYLQMNSLKPEDTAVYYCAADSSGEYPGGYWGQGTQVTVSS	low polyreactivity
QVQLVESGGGLVQAGGSLRLTCAASGITLGFYAMGWYRQAPGKERELVAAISGRGGSTYYADSVKGRFTISRDNAKNTVYLKMNSLKPEDTPVYYCNALGYYQLVTPFYYWGQGTQVTVSS	high polyreactivity
QVQLVESGGGLVQAGGSLRLTCAASGLTFDSNVMGWYREAPGKERELVAANTYSGRTYYADSEKGRFTISRDNAKNTVYLQMNSLKPEDTAVYYCAARNLAYTRKGYYYWGQGTQVTVSS	high polyreactivity
QVQLVESGGGLVQAGGSLRLTCAASGLTFWWYAMGWYRQAPGKERELVAGITGGGSTSYADSVKGRFTISRDNAKNTVYLQMNSLIQEDTAVYYCAASPYNGQRTWYKYFFLGDYWGQGTQVTVSS	high polyreactivity
QVQLVESGGGLVQAGGSLRLTCAASGNIFVGNDMGWYRQAPGKERELVAAISSGDTTSYADSVKGRFTISRDNAKNTVYLKMNSLKPEETAVYYCAVDRSLSPFAYDYWGQGTQVTVSS	low polyreactivity
QVQLVESGGGLVQAGGSLRLTCAASGNIFYINAMGSYRQAPGKDRELVAAIRGGGSTYYADSVKGRFTISRDNAKKTVYLQMTSLKAEDTAVYYCAARGRRLNPQYRAFGMDYWGQGTQVTVSS	high polyreactivity
QVQLVESGGGLVQAGGSLRLTCAASGRIFDRYVMGWYRQAPGKERELVAAITFSGGRTYYADSVKGRFTISRDNAKNTVYLQMNSLKPEDTAVYYCNRVYYQKIYDYWGQGTQVTVSS	high polyreactivity
QVQLVESGGGLVQAGGSLRLTCAASGRIFDYNDMGWYRQAPGKERELVAAITSDGSTNYADSVKGRFTISRDNAKNTVFLQMNSLKPEDPAVYYCAADTGETFDSIYDYWGQGTQVTVSS	low polyreactivity
QVQLVESGGGLVQAGGSLRLTCAASGRIFGYYVMGWYRQAPGKERELVAAIRSSADSTYYADSVKGRFTISRDNAKNTVYLQMNSLKPEDTAVYYCNADTTGYWSYGFQYYGEDYWGQGTQVTVSS	low polyreactivity
QVQLVESGGGLVQAGGSLRLTCAASGRIFKYYAMGWYRQAPGKEREFVADISRRGGSTYYADSVKGRFTISRDNAKNTVYLQMNSLKPEDTAVYYCAAQSGYIMDYWGQGTQVTVSS	high polyreactivity
QVQLVESGGGLVQAGGSLRLTCAASGRIFRVNGMGWYRQAPWKERDLVAPIRRSGGSTYYADSVKGRFTISRDNSKNNVYLQMKSLKPEDTAVYYCAAPVLLSSYTRYDSWGQGTQVTVSS	high polyreactivity
QVQLVESGGGLVQAGGSLRLTCAASGRIFWINDMVWNRQAPGKESELVAAIRSIGGSTYYADSVKGRFRISRDNAKNTVYLQMNSLKPEDTSVYYCAAKSSPKFRGRYYYWGQGTQVTVSS	low polyreactivity
QVQLVESGGGLVQAGGSLRLTCAASGRIFWRNAMGWYRQAPGKVREFVAAITGTGGSTYYADSVKGRFTISRDTAKNTVYLQMNSLKPEDTAVYYCAARWDYSYRYRLYYWGQGTQVTVSS	high polyreactivity
QVQLVESGGGLVQAGGSLRLTCAASGRTFAIYAMGWYRQAPRKEREFFDAISWSGGDTYYADSVKGRFTISRDNAKNTVYLQMNSLKAEDTAVYYCAARYIDYEGRDLQYELDYWGQGTQVSVSS	low polyreactivity
QVQLVESGGGLVQAGGSLRLTCAASGRTFAWYAMGWYRQAPGKERDLVAAISSAGSTYYADSVKGRFTISRDNAKNTVYLQMNSLKPEDTAVYYCAASFGRYTSGTYYYWGQGTQVTVSS	high polyreactivity
QVQLVESGGGLVQAGGSLRLTCAASGRTFDYYAMGWYRQAPGKERELVAAIRGSGGSTYYADSVKGRFTISRDNAKNTVYLQMNSLKPEDTAVYYCATDPPYFRTPWEYDYWGQGTQVTVSS	low polyreactivity
QVQLVESGGGLVQAGGSLRLTCAASGRTFGRYAMGWYRQAPGKEMDLVAAIRYTGGSTYADSVKGRFTISRDNAKNTVYLQMNRLKPEETAVYYCNRCGAFNTRNEITRYGYWGQGTQVTVSS	low polyreactivity
QVQLVESGGGLVQAGGSLRLTCAASGRTFGTYVMGWYIQAPGKERELVATISRRGGTTYYADSVKGRFTISRDNAKNTVYLQMNSLKPVDNAVYYCAATYFGTRYDYWGQGTQVTVSS	high polyreactivity
QVQLVESGGGLVQAGGSLRLTCAASGRTFLLYAMGWYRQAPGKERELVAAITSRSGRTYYADSVKGRFTISRDNAKNTVYLQMNSLKPEDTAVYYCAAQGYAPQEYEYWGQGTQVTVSS	high polyreactivity
